Results on nine molecules are retold here after US20180244796A1 (CARSGEN THERAPEUTICS, published 2018).

B1: chimeric antigen receptor P1A6E-δZ on CTL cells (receptor)
chain: QVQLEQSGLGLVKPSQTLSLTCAISGDTVSSDSAAWNWIRQSPSRGLEWLGRTYYRSKWFNDYAVSVKGRITINSDTSKNQFSLQLNSVTPEDTAVYYCARSNSYYYYAMDVWGQGTLVTVSSGGGGSGGGGSGGGGSQAVLTQPSSLSASPGASASLTCTLRSGINVGIYRIYWYQQRPGSPPQILLTYKSDSDKYQGSGVPSRFSGSKDASANAGILLISGLQSEDEADYYCMIWHSGGWVFGGGTKVTVLGTTTPAPRPPTPAPTIASQPLSLRPEACRPAAGGAVHTRGLDFACDIYIWAPLAGTCGVLLLSLVITRVKFSRSADAPA
notes: Expressed on human CTL cells by lentivirus; also called P1A6E-δZ (negative control); P1A6E-δZ (mock)
B2: single chain antibody P1A6E (phage-displayed, single phage ELISA) (scFv)
scFv: QVQLEQSGLGLVKPSQTLSLTCAISGDTVSSDSAAWNWIRQSPSRGLEWLGRTYYRSKWFNDYAVSVKGRITINSDTSKNQFSLQLNSVTPEDTAVYYCARSNSYYYYAMDVWGQGTLVTVSSGGGGSGGGGSGGGGSQAVLTQPSSLSASPGASASLTCTLRSGINVGIYRIYWYQQRPGSPPQILLTYKSDSDKYQGSGVPSRFSGSKDASANAGILLISGLQSEDEADYYCMIWHSGGWVFGGGTKVTVLG
notes: the fusion to the phage coat protein is not described
B3: chimeric antigen receptor P3F2-δZ on CTL cells (receptor)
chain: QMQLVQSGAEVKKPGASVKVSCKASGYTFTSYYMHWVRQAPGQGLEWMGIINPSGGSTSYAQKFQGRVTMTRDTSTSTVYMELSSLRSEDTAVYYCASSRSGTTVVNHDAFDIWGKGTTVTVSSGGGGSGGGGSGGGGSDIQLTQSPSSLSASVGDRVTITCRASQVISRALAWYQQTPGKPPKLLIYDASNLQSGVPSRFSGSGSGTDFTLTISRLQPEDFATYYCQQFNSYPLTFGGGTKLEIKRTTTPAPRPPTPAPTIASQPLSLRPEACRPAAGGAVHTRGLDFACDIYIWAPLAGTCGVLLLSLVITRVKFSRSADAPA
notes: Expressed on human CTL cells by lentivirus; also called P3F2-δZ (negative control); P3F2-δZ (mock)
B4: P1A6E monoclonal antibody (antibody, V domains shown)
VH: QVQLEQSGLGLVKPSQTLSLTCAISGDTVSSDSAAWNWIRQSPSRGLEWLGRTYYRSKWFNDYAVSVKGRITINSDTSKNQFSLQLNSVTPEDTAVYYCARSNSYYYYAMDVWGQGTLVTVSS
VL: QAVLTQPSSLSASPGASASLTCTLRSGINVGIYRIYWYQQRPGSPPQILLTYKSDSDKYQGSGVPSRFSGSKDASANAGILLISGLQSEDEADYYCMIWHSGGWVFGGGTKVTVLG
notes: Full antibody: VH in plasmid pIH with human IgG1 CH gene, VL in plasmid pIK with human IgG CL gene; also called monoclonal antibody P1A6E
B5: purified human mesothelin protein (recombinant, 6xHis tag) (other)
chain: EVEKTACPSGKKAREIDESLIFYKKWELEACVDAALLATQMDRVNAIPFTYEQLDVLKHKLDELYPQGYPESVIQHLGYLFLKMSPEDIRKWNVTSLETLKALLEVNKGHEMSPQVATLIDRFVKGRGQLDKDTLDTLTAFYPGYLCSLSPEELSSVPPSSIWAVRPQDLDTCDPRQLDVLYPKARLAFQNMNGSEYFVKIQSFLGGAPTEDLKALSQQNVSMDLATFMKLRTDAVLPLTVAEVQKLLGPHVEGLKAEERHRPVRDWILRQRQDDLDTLGLGLQGHHHHHH
notes: also called hu-mesothelin; human mesothelin recombinant protein
B6: single chain antibody P3F2 (phage-displayed, single phage ELISA) (scFv)
scFv: QMQLVQSGAEVKKPGASVKVSCKASGYTFTSYYMHWVRQAPGQGLEWMGIINPSGGSTSYAQKFQGRVTMTRDTSTSTVYMELSSLRSEDTAVYYCASSRSGTTVVNHDAFDIWGKGTTVTVSSGGGGSGGGGSGGGGSDIQLTQSPSSLSASVGDRVTITCRASQVISRALAWYQQTPGKPPKLLIYDASNLQSGVPSRFSGSGSGTDFTLTISRLQPEDFATYYCQQFNSYPLTFGGGTKLEIKR
notes: as for B2
B7: chimeric antigen receptor P3F2-BBZ on CTL cells (receptor)
chain: QMQLVQSGAEVKKPGASVKVSCKASGYTFTSYYMHWVRQAPGQGLEWMGIINPSGGSTSYAQKFQGRVTMTRDTSTSTVYMELSSLRSEDTAVYYCASSRSGTTVVNHDAFDIWGKGTTVTVSSGGGGSGGGGSGGGGSDIQLTQSPSSLSASVGDRVTITCRASQVISRALAWYQQTPGKPPKLLIYDASNLQSGVPSRFSGSGSGTDFTLTISRLQPEDFATYYCQQFNSYPLTFGGGTKLEIKRTTTPAPRPPTPAPTIASQPLSLRPEACRPAAGGAVHTRGLDFACDIYIWAPLAGTCGVLLLSLVITLYCKRGRKKLLYIFKQPFMRPVQTTQEEDGCSCRFPEEEEGGCELRVKFSRSADAPAYKQGQNQLYNELNLGRREEYDVLDKRRGRDPEMGGKPRRKNPQEGLYNELQKDKMAEAYSEIGMKGERRRGKGHDGLYQGLSTATKDTYDALHMQALPPR
notes: Expressed on human CTL cells by lentivirus; also called scFv(MSLN)-CD8-CD137-CD3 zeta
B8: chimeric antigen receptor P1A6E-BBZ on CTL cells (receptor)
chain: QVQLEQSGLGLVKPSQTLSLTCAISGDTVSSDSAAWNWIRQSPSRGLEWLGRTYYRSKWFNDYAVSVKGRITINSDTSKNQFSLQLNSVTPEDTAVYYCARSNSYYYYAMDVWGQGTLVTVSSGGGGSGGGGSGGGGSQAVLTQPSSLSASPGASASLTCTLRSGINVGIYRIYWYQQRPGSPPQILLTYKSDSDKYQGSGVPSRFSGSKDASANAGILLISGLQSEDEADYYCMIWHSGGWVFGGGTKVTVLGTTTPAPRPPTPAPTIASQPLSLRPEACRPAAGGAVHTRGLDFACDIYIWAPLAGTCGVLLLSLVITLYCKRGRKKLLYIFKQPFMRPVQTTQEEDGCSCRFPEEEEGGCELRVKFSRSADAPAYKQGQNQLYNELNLGRREEYDVLDKRRGRDPEMGGKPRRKNPQEGLYNELQKDKMAEAYSEIGMKGERRRGKGHDGLYQGLSTATKDTYDALHMQALPPR
notes: as for B7
B9: P3F2 monoclonal antibody (antibody, V domains shown)
VH: QMQLVQSGAEVKKPGASVKVSCKASGYTFTSYYMHWVRQAPGQGLEWMGIINPSGGSTSYAQKFQGRVTMTRDTSTSTVYMELSSLRSEDTAVYYCASSRSGTTVVNHDAFDIWGKGTTVTVSS
VL: DIQLTQSPSSLSASVGDRVTITCRASQVISRALAWYQQTPGKPPKLLIYDASNLQSGVPSRFSGSGSGTDFTLTISRLQPEDFATYYCQQFNSYPLTFGGGTKLEIKR
notes: Full antibody: VH in plasmid pIH with human IgG1 CH gene, VL in plasmid pIK with human IgG CL gene; also called monoclonal antibody P3F2

Assay [1] addresses B5. The experiment in a line: flow cytometry; CAR T cells stained with biotinylated human mesothelin recombinant protein and PE-labeled streptavidin. On the procedure:
Infected CTL cells were detected by flow cytometry on day 8 of culture for the expression of different chimeric antigen receptors. Firstly, the infected CAR T cells were incubated with biotinylated human mesothelin recombinant protein for 1 h at 37° C., washed in D-PBS twice and then incubated with PE-labeled streptavidin for 40 min at 37° C. After washed with D-PBS for 3 times, the ratio of positive cells was determined by flow cytometry. Uninfected T lymphocytes was used as a negative control, the positive rates of virus-infected T cells expressing different chimeric antigen receptors are shown in Table 3.

Assay [2] has as its target T1, BSA (bovine serum albumin) (bovine, UniProt P02769 25-607).
T1 construct: also called negative control protein BSA
Put plainly: single phage ELISA, 100 ng/well coated BSA, anti-M13 detection. As for the experimental part: 96 clones were randomly selected in the clones obtained from the fourth round of screening and their binding capability to human mesothelin was analyzed by single phage ELISA (enzyme-linked immunosorbent assay). For this purpose, each single colony was inoculated in 300 μl of 2×YT/ampicillin medium (containing 2% glucose) in a 96-well deep-well plate and cultured with shaking at 37° C. and 250 rpm for 16 hours. 20 μl of culture was inoculated into 500 μl of 2×YT/ampicillin medium (containing 0.1% glucose) and shaken at 37° C. and 250 rpm for 1.5 hours. To prepare the helper phage solution, 75 μl of M13KO7 (titer of 3×10¹² pfu/ml) was taken and mixed into 15 ml of 2×YT medium and added into a culture plate at 50 μl/well, and incubated at 37° C. and 150 rpm for 30 minutes. And then prepared kanamycin solution (180 μl of 50 mg/ml kanamycin was taken and added into 15 ml of 2×YT medium) was added at 50 μl/well and incubated with shaking for 16 hours at 37° C. and 250 rpm. […]
For single phage ELISA, 100 ng/well of antigen human mesothelin and negative control protein BSA (100 μl/well) were used in a 96-well MediSorp ELISA plate (purchased from Nunc) and coated overnight at 4° C. […] Extinction values were measured at 450 nm with an enzyme-linked immunosorbent (Bio-Rad).

Assay [3] has as its target B5. The experiment in a line: SPR Biacore T200, antibody captured by anti-human IgG (Fc), human mesothelin as analyte, 25 C. On the procedure:
(§1) To quantitatively analyze the binding of an antibody to human mesothelin, the affinity and kinetic parameters of single-chain antibody and monoclonal antibody of P1A6E and P3F2 were measured by capture method using Biacore T200 system (from GE). An anti-human IgG (Fc) antibody (purchased from GE) was coupled to carboxymethyl dextran surface of sensor chip […] through primary amino with NHS/EDC coupling according to the manufacturer's instructions. Measurements were performed in 1×HBS-EP+working buffer at 25° C., 30 μl/min, and regeneration condition was 3 M MgCl2, 10 μl/min for 30 seconds. In each round of the testing cycle, the antibody to be tested is firstly captured onto the chip. Analyte (human mesothelin) of a certain concentration flowed over the chip surface. Due to the produced SPR signal, the interaction between human mesothelin and the captured antibody can be detected. The detected signal is defined as resonance unit (RU), which was plotted vs time (second) to obtain the corresponding binding curve and dissociation curve. In different test cycles, concentrations of human mesothelin were 10 nM, 20 nM, 40 nM, 80 nM and 160 nM, respectively. The resulting curves were evaluated using Biacore T200 evaluation software and the affinity KD values were calculated. FIG. 5 and FIG. 6 show kinetic curves of the monoclonal antibodies P1A6E and P3F2, in a Biacore Affinity Assay, respectively.

The next assay addresses T2, scFv-P3F2-Fc (human, UniProt P01857-1 99-330 = IgG part, limits assumed).
T2 construct: domain: Fc fragment; scFv cloned NheI/BamHI into pCMV-V5-Fc, expressed in HEK-293F, protein A purified; also called P3F2 single chain antibody; P3F2 single chain antibod
Described as above. On the procedure:
as §1

The next assay has as its target T3, scFv-P1A6E-Fc (human, UniProt P01857-1 99-330 = IgG part, limits assumed).
T3 construct: domain: Fc fragment; scFv cloned NheI/BamHI into pCMV-V5-Fc, expressed in HEK-293F, protein A purified; also called P1A6E single chain antibody; antibody-Fc fusion protein scFv-P1A6E-Fc
Described as above. As for the experimental part:
as §1

For assay [4], the target named is human mesothelin on PANC-1-MSLN cells (human, UniProt Q13421 296-598). The experiment in a line: cell-based or functional assay.
Chain of human mesothelin on PANC-1-MSLN cells (Q13421 other isoform, or with tags, fused parts or gaps limits assumed): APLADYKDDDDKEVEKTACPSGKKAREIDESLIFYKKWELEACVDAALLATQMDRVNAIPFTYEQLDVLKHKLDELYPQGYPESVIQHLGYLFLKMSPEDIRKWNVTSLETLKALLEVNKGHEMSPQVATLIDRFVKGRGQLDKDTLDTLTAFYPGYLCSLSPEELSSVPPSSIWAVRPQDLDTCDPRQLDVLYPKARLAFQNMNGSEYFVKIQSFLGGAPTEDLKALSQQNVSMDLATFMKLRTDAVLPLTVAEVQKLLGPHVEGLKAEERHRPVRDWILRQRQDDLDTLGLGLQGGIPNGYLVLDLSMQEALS

T1 sequence (P02769 25-607 limits assumed): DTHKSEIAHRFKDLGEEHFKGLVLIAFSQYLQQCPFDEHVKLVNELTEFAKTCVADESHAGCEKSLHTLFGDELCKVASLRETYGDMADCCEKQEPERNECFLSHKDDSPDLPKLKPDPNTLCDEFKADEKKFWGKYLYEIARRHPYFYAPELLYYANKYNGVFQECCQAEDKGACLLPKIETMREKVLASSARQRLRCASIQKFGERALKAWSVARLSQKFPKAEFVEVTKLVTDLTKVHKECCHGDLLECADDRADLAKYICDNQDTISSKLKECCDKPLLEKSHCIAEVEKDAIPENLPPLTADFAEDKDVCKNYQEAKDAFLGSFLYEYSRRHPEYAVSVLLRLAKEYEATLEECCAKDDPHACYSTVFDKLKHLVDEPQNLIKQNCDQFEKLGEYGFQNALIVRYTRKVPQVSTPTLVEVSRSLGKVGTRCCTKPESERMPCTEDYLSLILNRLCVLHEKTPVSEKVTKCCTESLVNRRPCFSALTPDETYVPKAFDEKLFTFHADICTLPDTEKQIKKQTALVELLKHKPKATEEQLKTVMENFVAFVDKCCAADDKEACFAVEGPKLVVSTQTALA

Regarding B1, the “Positive rate of CTL cells transfection” value in assay [1] was found to be 75%.

Consider B2, for which the binding result in assay [2] was “no binding”.

Regarding B3, the “Positive rate of CTL cells transfection” value in assay [1] was determined as 71%.

As to B4, in assay [3], the Kd was found to be 4.04 nM, the koff worked out at 0.00116 s⁻¹ and the kon amounted to 288000 M⁻¹ s⁻¹.

For the molecule B5, in the assay with scFv-P3F2-Fc, the Kd is 16.2 nM, the koff was determined as 0.000935 s⁻¹ and the kon turned out to be 57700 M⁻¹ s⁻¹. In the assay with scFv-P1A6E-Fc, this molecule registered a Kd of 18.9 nM, a koff of 0.00156 s⁻¹ and a kon of 82500 M⁻¹ s⁻¹.

On to B6, for which, in assay [2], the binding result was “no binding”.

In the case of B7, in assay [4], the “CYTOTOXICITY (%), effector target ratio 1:1, LDH release, 18 h” value turned out to be 60.2%; the “CYTOTOXICITY (%), effector target ratio 1:3, LDH release, 18 h” value worked out at 31.9%; the “CYTOTOXICITY (%), effector target ratio 3:1, LDH release, 18 h” value came out at 89.3%. In addition, in assay [1], the “Positive rate of CTL cells transfection” value stood at 83%.

B8: in assay [4], the “CYTOTOXICITY (%), effector target ratio 1:1, LDH release, 18 h” value is 56.7%; the “CYTOTOXICITY (%), effector target ratio 1:3, LDH release, 18 h” value turned out to be 25.3%; the “CYTOTOXICITY (%), effector target ratio 3:1, LDH release, 18 h” value came out at 86.5%. Moreover, the “Positive rate of CTL cells transfection” value in assay [1] was determined as 85%.

Turning to B9, in assay [3], the Kd is 7.17 nM, the koff came to 0.000789 s⁻¹ and the kon stood at 110000 M⁻¹ s⁻¹.
